Experimental data: paper PMC13290226, “Intraflagellar transport protein IFT172 contains a C-terminal ubiquitin-binding U-box-like domain involved in ciliary signaling” (eLife, 2026)

How the values were obtained:
Assay in all cases: pull-down; GST-tagged HsIFT172 constructs (10 μM; 5 μM in Figure 4C) immobilised on GSH beads; prey 20 μM UbcH5a~Ub or 15-25 μM tetra-ubiquitin in 50 mM Tris pH 7.5, 100 mM NaCl, 1 mM DTT, 4 °C, 2 hr; eluted with glutathione; Coomassie and anti-ubiquitin western blot
Conditions in all cases: both partners purified
[1] = target: T1, UbcH5a_(C85S)~Ub conjugate, UbcH5a A96D (human, UniProt P51668 1-147; P0CG48 1-76, C85S | A96D, oxyester link from Ser85 (C85S) to ubiquitin | oxyester-linked to UbcH5a Ser85)
T1 construct: Homo sapiens UbcH5a, full length, C85S and A96D; Homo sapiens ubiquitin; source: in vitro charging reaction of proteins purified from E. coli, purified

[2] = target: T2, UbcH5a_(C85S)~Ub conjugate, UbcH5a F62A (human, UniProt P51668 1-147; P0CG48 1-76, C85S | F62A, oxyester link from Ser85 (C85S) to ubiquitin | oxyester-linked to UbcH5a Ser85)
T2 construct: Homo sapiens UbcH5a, full length, C85S and F62A; Homo sapiens ubiquitin; source: in vitro charging reaction of proteins purified from E. coli, purified

[3] = target: T3, UbcH5a_(C85S)~Ub conjugate (WT) (human, UniProt P51668 1-147; P0CG48 1-76, C85S, oxyester link from Ser85 (C85S) to ubiquitin | oxyester-linked to UbcH5a Ser85)
T3 construct: Homo sapiens UbcH5a (E2 enzyme), full length, active site cysteine mutated to serine; Homo sapiens ubiquitin; Protocol adapted from Middleton et al., 2014; also called WT UbcH5a~Ub conjugate; E2~Ub conjugate

Measured: binding result

B1: GST-tagged HsIFT172C2 (His-GST-TEV-HsIFT172_(1470-C)) (domain or fragment, human, UniProt Q9UG01 1470-1749, looked up)
chain: GAPANPQNFNIYKRIFTDMVSSPGTNCAEAYHSWADLRDVLFNLCENLVKSSEANSPAHEEFKTMLLIAHYYATRSAAQSVKQLETVAARLSVSLLRHTQLLPVDKAFYEAGIAAKAVGWDNMAFIFLNRFLDLTDAIEEGTLDGLDHSDFQDTDIPFEVPLPAKQHVPEAEREEVRDWVLTVSMDQRLEQVLPRDERGAYEASLVAASTGVRALPCLITGYPILRNKIEFKRPGKAANKDNWNKFLMAIKTSHSPVCQDVLKFISQWCGGLPSTSFSFQ
notes: also called GST-HsIFT172C2; source: E. coli BL21 (DE3), purified (Ni-NTA, Q anion exchange, SEC); not shown: GST, N-terminal, kept
binds: all assays above
